The target in this assay is formyl peptide receptor 2 (Fpr2/ALX), murine (mouse (endogenous in C57BL/6 and STM mice)) (UniProt O88536).

No end group written: not given here.

Chain of UniProt O88536 (O88536 whole entry): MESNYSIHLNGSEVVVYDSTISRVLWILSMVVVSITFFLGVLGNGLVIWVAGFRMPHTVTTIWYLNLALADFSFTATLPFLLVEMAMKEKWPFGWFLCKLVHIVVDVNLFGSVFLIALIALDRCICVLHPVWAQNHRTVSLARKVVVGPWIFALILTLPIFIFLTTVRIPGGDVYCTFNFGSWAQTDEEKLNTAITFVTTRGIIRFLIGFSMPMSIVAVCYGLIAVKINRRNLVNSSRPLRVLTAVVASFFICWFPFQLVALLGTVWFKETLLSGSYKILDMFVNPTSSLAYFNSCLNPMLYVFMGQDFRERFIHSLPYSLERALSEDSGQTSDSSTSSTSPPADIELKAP

On to Ac-AMVSEFLKQAWFIENEEQEYVQTVK [AnxA1 mimetic peptide AnxA1_(Ac2-26)], for which the increase in blood flow (cessation time) in cerebral venules of sickle cell transgenic mice given AnxA1 (Ac2-26) 4 mg/kg vs. saline, light/dye thrombosis; mitigated by co-administration of Boc2 or WRW4 was 63.5%.

Values taken from publication PMC7697101.
